Reference: PMC12102759

B1: PIP5K1C peptide 640-655 (Phosphatidylinositol 4-phosphate 5-kinase type-1 gamma), 16-mer library wild type / TLN1 PTB (TLN1 Phosphotyrosine-binding (PTB) domain, residues 309-401) (parent)
chain 1: FPTDERSWVYSPLHYS
chain 2: GVSFFLVKEKMKGKNKLVPRLLGITKECVMRVDEKTKEVIQEWNLTNIKRWAASPKSFTLDFGDYQDGYYSVQTTEGEQIAQLIAGYIDIILK
B2: ATXN2 peptide 911-926 (Ataxin-2), 16-mer library wild type / PABPC1 PABC (PABPC1 PABC domain, residues 544-623) (parent)
chain 1: KSTLNPNAKEFNPRSF
chain 2: PLTASMLASAPPQEQKQMLGERLFPLIQAMHPTLAGKITGMLLEIDNSELLHMLESPESLRSKVDEAVAVLQAHQAKEAA
B3: RNF115 peptide 67-82 (E3 ubiquitin-protein ligase RNF115), 16-mer library wild type / MDM2 SWIB (MDM2 SWIB/MDM2 domain, residues 17-125) (parent)
chain 1: TTTHFAELWGHLDHTM
chain 2: SQIPASEQETLVRPKPLLLKLLKSVGAQKDTYTMKEVLFYLGQYIMTKRLYDEKQQHIVYCSNDLLGDLFGVPSFSVKEHRKIYTMIYRNLVVVNQQESSDSGTSVSEN

Variants of: B1
Experiment: proteomic peptide phage display deep mutational scan (ProP-PD DMS): M13 P8 16-mer library selected against immobilised GST-tagged bait for four days (rounds), NGS of the eluted pools per day and pseudo-replica
Conditions: with TLN1 PTB (TLN1 Phosphotyrosine-binding (PTB) domain, residues 309-401); bait immobilised on MaxiSorp plates (10 µg), library pre-cleared on GST, 2 h binding at 4 °C, five washes; one round per day, days 1-4; value from days 2 and 3; keep out of graded; scale: average fractional NGS count over selection days 2 and 3

| screen value | Variant |
| --- | --- |
| 0 | chain 1 FPTDERSGVYSPLHYS [chain 1 W8G] |
| 7.15e-05 | chain 1 FPTDERSFVYSPLHYS [chain 1 W8F] |
| 0 | chain 1 FPTDERSDVYSPLHYS [chain 1 W8D] |
| 0.000733 | chain 1 FPYDERSWVYSPLHYS [chain 1 T3Y] |
| 0.00018 | chain 1 FPSDERSWVYSPLHYS [chain 1 T3S] |
| 4.5e-05 | chain 1 FPVDERSWVYSPLHYS [chain 1 T3V] |
| 0.000436 | chain 1 FPWDERSWVYSPLHYS [chain 1 T3W] |
| 0.000167 | chain 1 FPTDERSWVYSPLHPS [chain 1 Y15P] |
| 5.2e-05 | chain 1 FPTDERSWVYSPLHNS [chain 1 Y15N] |
| 0.00057 | chain 1 FPTDERSWVYSPLHGS [chain 1 Y15G] |
| 0.000347 | chain 1 FPTDERSWVYSPLHES [chain 1 Y15E] |
| 0.000401 | chain 1 FPTDERSWVYSPLHSS [chain 1 Y15S] |
| 0.000656 | chain 1 FPTDERSWVYSPLHAS [chain 1 Y15A] |
| 0.000245 | chain 1 FPTDERSWVYSPLHTS [chain 1 Y15T] |
| 0.000911 | chain 1 FPTDERSWVYSPLHWS [chain 1 Y15W] |
| 3.79e-05 | chain 1 FPTDERSWVYSPLHLS [chain 1 Y15L] |
| 0.000895 | chain 1 FPTDERSWVYSPLHKS [chain 1 Y15K] |
| 0.00152 | chain 1 FPTDERSWVYSPLHFS [chain 1 Y15F] |
| 0.000147 | chain 1 FPTDERSWVYSPLHQS [chain 1 Y15Q] |

| screen value | Variant |
| --- | --- |
| 0.00126 | chain 1 FPTDERSWVYSPLHDS [chain 1 Y15D] |
| 0.000186 | chain 1 FPTDERSWVYSPLHVS [chain 1 Y15V] |
| 0.000141 | chain 1 FPTDERSWVYSPLHMS [chain 1 Y15M] |
| 0.000526 | chain 1 FPTDERSWVYSPLHHS [chain 1 Y15H] |
| 0.000186 | chain 1 FPTDERSWVYSPLHIS [chain 1 Y15I] |
| 0.000257 | chain 1 FPTDERSWQYSPLHYS [chain 1 V9Q] |
| 0.000489 | chain 1 FPTDERSWDYSPLHYS [chain 1 V9D] |
| 0.000257 | chain 1 FPTDERSWHYSPLHYS [chain 1 V9H] |
| 0.000147 | chain 1 FPTDERSWTYSPLHYS [chain 1 V9T] |
| 0.000141 | chain 1 FPTDERSWFYSPLHYS [chain 1 V9F] |
| 0.000334 | chain 1 FPTDERSWSYSPLHYS [chain 1 V9S] |
| 0.000573 | chain 1 FPTDERSWLYSPLHYS [chain 1 V9L] |
| 0.000808 | chain 1 FPTDERSWKYSPLHYS [chain 1 V9K] |
| 0.000288 | chain 1 FPTDERSWYYSPLHYS [chain 1 V9Y] |
| 0.00044 | chain 1 FPTDERSWMYSPLHYS [chain 1 V9M] |
| 0.00995 | chain 1 FPTDERSWNYSPLHYS [chain 1 V9N] |
| 0.000185 | chain 1 FPTDERSWGYSPLHYS [chain 1 V9G] |
| 0.000353 | chain 1 FPTDERSWRYSPLHYS [chain 1 V9R] |
| 0.000872 | chain 1 FPTDERSWWYSPLHYS [chain 1 V9W] |

| screen value | Variant |
| --- | --- |
| 0.000929 | chain 1 FPTDERSWEYSPLHYS [chain 1 V9E] |
| 0.000113 | chain 1 FPTDERSWAYSPLHYS [chain 1 V9A] |
| 5.76e-05 | chain 1 FPTDERSWIYSPLHYS [chain 1 V9I] |
| 0.000358 | chain 1 FPTDERSWVLSPLHYS [chain 1 Y10L] |
| 0.000754 | chain 1 FPTDERSWVQSPLHYS [chain 1 Y10Q] |
| 0.00109 | chain 1 FPTDERSWVKSPLHYS [chain 1 Y10K] |
| 0.00117 | chain 1 FPTDERSWVTSPLHYS [chain 1 Y10T] |
| 0.000216 | chain 1 FPTDERSWVNSPLHYS [chain 1 Y10N] |
| 8.84e-05 | chain 1 FPTDERSWVWSPLHYS [chain 1 Y10W] |
| 6.93e-05 | chain 1 FPTDERSWVHSPLHYS [chain 1 Y10H] |
| 0.000662 | chain 1 FPTDERSWVFSPLHYS [chain 1 Y10F] |
| 0.000303 | chain 1 FPTDERSWVASPLHYS [chain 1 Y10A] |
| 0.00032 | chain 1 FPTDERSWVMSPLHYS [chain 1 Y10M] |
| 0.000521 | chain 1 FPTDERSWVDSPLHYS [chain 1 Y10D] |
| 0.000894 | chain 1 FPTDERSWVRSPLHYS [chain 1 Y10R] |
| 0.00342 | chain 1 FPTDERSWVSSPLHYS [chain 1 Y10S] |
| 0.000724 | chain 1 FPTDERSWVVSPLHYS [chain 1 Y10V] |
| 0.000394 | chain 1 FPTDERSWVPSPLHYS [chain 1 Y10P] |
| 0.000546 | chain 1 FPTDERSWVISPLHYS [chain 1 Y10I] |

Variants of: B2
Experiment: as above
Conditions: with PABPC1 PABC (PABPC1 PABC domain, residues 544-623); bait immobilised on MaxiSorp plates (10 µg), library pre-cleared on GST, 2 h binding at 4 °C, five washes; one round per day, days 1-4; value from days 2 and 3; scale: average fractional NGS count over selection days 2 and 3

| screen value | Variant |
| --- | --- |
| 0 | chain 1 KSTLNPNRKEFNPRSF [chain 1 A8R] |
| 0 | chain 1 KSTLNPNIKEFNPRSF [chain 1 A8I] |

Variants of: B3
Experiment: as above
Conditions: with MDM2 SWIB (MDM2 SWIB/MDM2 domain, residues 17-125); bait immobilised on MaxiSorp plates (10 µg), library pre-cleared on GST, 2 h binding at 4 °C, five washes; one round per day, days 1-4; value from days 2 and 3; keep out of graded; scale: average fractional NGS count over selection days 2 and 3

| screen value | Variant |
| --- | --- |
| 8.15e-05 | chain 1 G10E |
| 3.49e-05 | chain 1 G10F |
| 7.22e-05 | chain 1 G10V |
| 2.89e-05 | chain 1 G10R |
| 5.57e-05 | chain 1 G10H |
| 0 | chain 1 G10K |
| 0 | chain 1 F5D |
| 0 | chain 1 F5A |
| 0 | chain 1 F5R |
| 0 | chain 1 F5N |
| 0 | chain 1 F5K |
| 6.02e-05 | chain 1 T3N |
| 0 | chain 1 L12T |
| 0 | chain 1 L12S |
| 0 | chain 1 L12F |
| 1.9e-05 | chain 1 L12V |
| 0 | chain 1 L12K |
| 0 | chain 1 D13K |
| 0 | chain 1 L8A |
| 1.29e-05 | chain 1 L8P |
| 0 | chain 1 L8Q |

| screen value | Variant |
| --- | --- |
| 0 | chain 1 L8N |
| 0 | chain 1 L8S |
| 4.72e-05 | chain 1 L8E |
| 2.98e-05 | chain 1 T2W |
| 4.31e-05 | chain 1 T2F |
| 7.17e-05 | chain 1 T2N |
| 0.000134 | chain 1 A6N |
| 3.8e-05 | chain 1 A6P |
| 0 | chain 1 A6R |
| 0.00014 | chain 1 A6T |
| 0.000156 | chain 1 A6Y |
| 0.000296 | chain 1 A6F |
| 5.55e-05 | chain 1 T15R |
| 4.79e-05 | chain 1 T15N |
| 4.41e-05 | chain 1 T15E |
| 2.45e-05 | chain 1 T15K |
| 7.64e-05 | chain 1 T15P |
| 0.000119 | chain 1 H14K |
| 2.82e-05 | chain 1 H14D |
| 4.26e-05 | chain 1 M16H |
| 0.000115 | chain 1 M16S |

| screen value | Variant |
| --- | --- |
| 0.000117 | chain 1 M16R |
| 4.72e-05 | chain 1 M16G |
| 0 | chain 1 M16K |
| 0 | chain 1 E7Y |
| 5.37e-05 | chain 1 E7W |
| 0 | chain 1 E7G |
| 7.08e-05 | chain 1 E7L |
| 0 | chain 1 E7S |
| 2.47e-05 | chain 1 H4W |
| 1.9e-05 | chain 1 H4R |
| 0 | chain 1 W9A |
| 0 | chain 1 W9Y |
| 0 | chain 1 W9D |
| 0 | chain 1 W9N |
| 4.89e-05 | chain 1 W9K |
| 0 | chain 1 W9H |
| 0 | chain 1 W9Q |
| 0 | chain 1 W9L |
| 0.000116 | chain 1 W9G |
| 7.05e-05 | chain 1 W9T |
| 3.98e-05 | chain 1 W9P |
